Broadly, the stoichiometry N is the number of molecules, sites or subunits per partner or assembly.

This assay addresses N-terminally 3× FLAG-tagged IglD from Francisella novicida (Francisella novicida) (UniProt Q7X3J2). In words: cryo-EM structure.

Substance “N-terminally 3× FLAG-tagged IglD from Francisella novicida (from UniProt Q7X3J2 1-398) (natural protein)” returned a stoichiometry N of 3.

The values above are taken from article PMC9600919.
